The chains are these.
B1: citrine- or cerulean-tagged per^WT (FRET construct, HEK293T) (natural protein, human, UniProt P23942 1-346, looked up)
chain: MALLKVKFDQKKRVKLAQGLWLMNWFSVLAGIIIFSLGLFLKIELRKRSDVMNNSESHFVPNSLIGMGVLSCVFNSLAGKICYDALDPAKYARWKPWLKPYLAICVLFNIILFLVALCCFLLRGSLENTLGQGLKNGMKYYRDTDTPGRCFMKKTIDMLQIEFKCCGNNGFRDWFEIQWISNRYLDFSSKEVKDRIKSNVDGRYLVDGVPFSCCNPSSPRPCIQYQITNNSAHYSYDHQTEELNLWVRGCRAALLSYYSSLMNSMGVVTLLIWLFEVTITIGLRYLQTSLDGVSNPEESESESQGWLLERSVPETWKAFLESVKKLGKGNQVEAEGADAGQAPEAG
notes: peripherin-2 (PRPH2), human, wild type; in the 'per^WT only' FRET pair the two copies differ in the fluorophore; also called per^WT only; source: HEK293T, transiently co-transfected, in living cells
B2: C-terminally myc- or flag-tagged per^WT (SDGC construct) (natural protein, human, UniProt P23942 1-346, looked up)
chain: B1 chain
notes: peripherin-2 (PRPH2), human, wild type; also called per^WT only; source: HEK293T, transiently transfected, in lysate (0.5% Triton X-100)
B3: C-terminally myc- or flag-tagged per^C214S (SDGC construct) (natural protein, human, UniProt P23942 1-346, looked up)
chain: B1 chain with C214S
notes: peripherin-2 (PRPH2), human, adRP-linked mutant C214S; also called per^C214S only; per^MT; source: HEK293T, transiently transfected, in lysate (0.5% Triton X-100)
B4: citrine- or cerulean-tagged per^P210L (FRET construct, HEK293T) (natural protein, human, UniProt P23942 1-346, looked up)
chain: B1 chain with P210L
notes: peripherin-2 (PRPH2), human, adRP-linked mutant P210L; in the 'per^P210L only' FRET pair the two copies differ in the fluorophore; also called per^P210L only; per^MT; source: HEK293T, transiently co-transfected, in living cells
B5: citrine- or cerulean-tagged per^C214S (FRET construct, HEK293T) (natural protein, human, UniProt P23942 1-346, looked up)
chain: B1 chain with C214S
notes: peripherin-2 (PRPH2), human, adRP-linked mutant C214S; in the 'per^C214S only' FRET pair the two copies differ in the fluorophore; also called per^C214S only; per^MT; source: HEK293T, transiently co-transfected, in living cells

Positions count from the first letter of the chain named. Names and notes keep the numbering of the source. Values joined by “and” are separate entries in the source; they are usually repeats but may differ in a detail not shown here. Identical values can stand only once.

Series [1] concerns the molecule itself. Description: FRET or BRET; 3 cube FRET in living co-transfected HEK293T cells; FRET imaging solution (140 mM NaCl, 5 mM KCl, 2 mM CaCl2, 1 mM MgCl2, 10 mM glucose, 10 mM HEPES, pH 7.4), RT; EAmax from the binding curve of apparent FRET efficiency against the cerulean/citrine molar ratio. (In BRET a luciferase serves as donor, and the signal depends on an acceptor being close.)

The target of series [2] is T1, citrine- or cerulean-tagged Rom-1 (FRET construct, HEK293T) (human, UniProt Q03395 1-351).
T1 construct: Rom-1, homolog of peripherin-2; 'the single human peripherin-2 and Rom-1 transgenes'; source: HEK293T, transiently co-transfected, in living cells
The series is described as above. As to conditions: partners not purified.

Series [3] deals with the molecule itself. Description: sucrose density gradient centrifugation; lysate of transfected HEK293T cells (0.5% Triton X-100, 150 mM NaCl, 2 mM CaCl2) on a 5-20% sucrose gradient with 0.1% Triton X-100 and 10 mM N-ethylmaleimide, 46,700 rpm, 2 h, 4 °C; 11 fractions immunoblotted with myc- or flag-specific antibodies under non-reducing conditions; DNA standards for size. (A western blot detects proteins with antibodies after separation by electrophoresis.)

Series [4] deals with B1. Description: FRET or BRET; 3 cube FRET in living co-transfected HEK293T cells; FRET imaging solution (140 mM NaCl, 5 mM KCl, 2 mM CaCl2, 1 mM MgCl2, 10 mM glucose, 10 mM HEPES, pH 7.4), RT; EAmax from the binding curve of apparent FRET efficiency against the cerulean/citrine molar ratio. As to conditions: partners not purified.

Usually stoichiometry N stands for a count of units in the complex or per binding partner.

T1 sequence (Q03395 whole entry): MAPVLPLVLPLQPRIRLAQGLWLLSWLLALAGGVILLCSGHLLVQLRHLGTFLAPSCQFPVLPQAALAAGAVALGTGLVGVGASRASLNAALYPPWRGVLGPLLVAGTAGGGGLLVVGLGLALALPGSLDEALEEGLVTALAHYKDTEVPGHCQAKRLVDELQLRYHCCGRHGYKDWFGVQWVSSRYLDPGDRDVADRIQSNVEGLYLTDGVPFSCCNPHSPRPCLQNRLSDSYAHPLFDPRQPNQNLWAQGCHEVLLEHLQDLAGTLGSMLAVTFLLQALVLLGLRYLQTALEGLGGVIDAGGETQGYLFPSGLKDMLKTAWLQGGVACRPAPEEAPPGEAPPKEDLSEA

Regarding B1, the “EAmax (maximal FRET efficiency)” value in series [1] came out at 34.2%; in series [2], 15.6%.

In the case of B2, in series [3], the “stoichiometry N” value was 4 and 8.

In the case of B3, the “stoichiometry N” value in series [3] was determined as 2.

Turning to B4, the “EAmax (maximal FRET efficiency)” value in series [4] was 9.44%; in series [1], 30.7%; in series [2], 6.58%.

Take B5: the “EAmax (maximal FRET efficiency)” value in series [4] came out at 8.58%; in series [1], 26.5%; in series [2], 6.32%.

Values taken from publication PMC5443838, “Peripherin-2 and Rom-1 have opposing effects on rod outer segment targeting of retinitis pigmentosa-linked peripherin-2 mutants” (Scientific Reports, 2017).
